The values that follow come from publication PMC12406181 (2025).

This test has as its target T1, HER2-DIVMP (HER2 domain IV model receptor) domain IV fragment (Homo sapiens, UniProt P04626).
T1 chain: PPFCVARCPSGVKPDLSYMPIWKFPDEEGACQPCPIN
Nature of the test: fluorescence spectroscopy titration.

B1: A9-PEG-A9 dimer (peptide)
chain: QDVNTAVAW
modifications: not fully specified; two A9 chains N-terminally linked via PEG (1 kDa), C-terminal amide; HER2-DIVMP is a synthetic two-chain disulfide-linked peptide
On to B1, for which the Kd – broadly, the concentration at which binding is half-saturated – worked out at 5.7 nM.
